Results on 13 molecules are retold here after EP4772193A1 (Teijin Pharma Limited, dated 2026).

In experiment [1] the target is T1, recombinant human soluble gpNMB (recombinant human gpNMB-FLAG-His) (human, UniProt Q14956 23-498).
T1 sequence: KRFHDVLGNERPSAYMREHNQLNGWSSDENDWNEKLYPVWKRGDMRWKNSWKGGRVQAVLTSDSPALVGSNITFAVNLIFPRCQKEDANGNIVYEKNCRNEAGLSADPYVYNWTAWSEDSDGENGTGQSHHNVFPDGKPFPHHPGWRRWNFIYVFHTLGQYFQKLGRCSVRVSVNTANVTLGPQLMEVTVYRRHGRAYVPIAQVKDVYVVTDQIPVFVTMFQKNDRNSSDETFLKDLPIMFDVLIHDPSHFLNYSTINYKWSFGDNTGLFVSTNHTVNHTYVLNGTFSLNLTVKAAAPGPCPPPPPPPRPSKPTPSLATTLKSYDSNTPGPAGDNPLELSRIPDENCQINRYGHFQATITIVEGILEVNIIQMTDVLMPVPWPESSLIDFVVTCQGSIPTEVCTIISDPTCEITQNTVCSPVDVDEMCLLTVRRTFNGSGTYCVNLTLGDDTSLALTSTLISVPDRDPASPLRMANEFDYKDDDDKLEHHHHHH
The experiment is described as follows: SPR, antibody 100 nM over captured gpNMB-FLAG-His, 25C.

For experiment [2], the target named is T2, recombinant mouse soluble gpNMB (recombinant mouse gpNMB-FLAG-His) (mouse, UniProt Q99P91 23-502).
T2 sequence: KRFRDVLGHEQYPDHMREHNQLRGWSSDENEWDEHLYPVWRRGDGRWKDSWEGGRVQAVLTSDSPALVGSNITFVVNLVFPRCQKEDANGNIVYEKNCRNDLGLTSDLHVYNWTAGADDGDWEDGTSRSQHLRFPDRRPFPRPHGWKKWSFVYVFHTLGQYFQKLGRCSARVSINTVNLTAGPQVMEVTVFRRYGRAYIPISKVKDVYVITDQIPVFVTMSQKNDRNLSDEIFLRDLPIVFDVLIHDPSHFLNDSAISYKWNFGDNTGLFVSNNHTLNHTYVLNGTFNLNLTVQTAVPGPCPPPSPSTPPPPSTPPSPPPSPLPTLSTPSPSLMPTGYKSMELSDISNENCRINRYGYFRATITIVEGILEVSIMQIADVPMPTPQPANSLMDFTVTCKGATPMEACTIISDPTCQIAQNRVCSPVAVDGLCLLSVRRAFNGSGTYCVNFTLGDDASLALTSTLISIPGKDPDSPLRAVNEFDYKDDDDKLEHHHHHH
The experiment is described as above.

B1: GPN05-1 (antibody, V domains shown)
VH: QVQLQQSGAELVRPGTSVKVSCKASGYAFSNHLIEWVKQRPGQGLEWIGVINPGSGGTNYIEKFKGKATLTADKSSSTAYMQLSSLTSDDSAVYFCARGANWDVGFAYWGQGTLVTVSA
VL: EIQMTQSPSSMSASLGDRITITCQATQDIVKNLNWYQQKPGKPPSFLIYYATELAEGVPSRFSGSGSGSDFSLTISNLESEDFADYYCLQFHEFPRTFGGGTKLEIK
notes: monoclonal with mouse IgG constant regions
The term Kd denotes the concentration at which binding is half-saturated. As usually defined, the koff is the first-order rate constant of dissociation. What is called kon is the rate constant with which the complex forms. B1: in experiment [1], the Kd worked out at 3.3 nM, the koff amounted to 0.00016 s⁻¹ and the on-rate (kon) was determined as 48000 M⁻¹ s⁻¹. Moreover, in experiment [2], the Kd came out at 20 nM, the koff was 0.0013 s⁻¹ and the kon turned out to be 61000 M⁻¹ s⁻¹.

B2: GPN06-1 (antibody, V domains shown)
VH: QVQLQQPGAEIVRPGASVKLSCKASGYTFTDNWMGWVKQRPGQGLEWIGAIDPSDSFTNYNQNFKGKATLTVDTSSSTAYMQLSSLTSEDSAVYFCTRSGYYGSPKLGGDYWGQGTTLTVSS
VL: QIVLTQSPAIMSASLGEEITLTCSASSSISYMHWYQQKSGTSPKLLIYSTSNLASGVPSRFSGSGSGTFYSLTISSVEAEDAADYYCHQWNSYPCTFGGGTKLEIK
notes: as for B1
With B2, in experiment [1], the Kd amounted to 1.4 nM, the koff is 0.00049 s⁻¹ and the kon was determined as 340000 M⁻¹ s⁻¹. Moreover, in experiment [2], the Kd was found to be 12 nM, the koff turned out to be 0.0018 s⁻¹ and the kon was 150000 M⁻¹ s⁻¹.

B3: GPN15-3 (antibody, V domains shown)
VH: QVTLKESGPGILQPSQTLSLTCSFSGFSLTTSGMGVGWIRQPSGKGLEWLADMWWDDDKNYNPSLKSRLTISKDNSKKQVFLKIASVDTADTATYYCARRVYSSWFAYWGQGTLVTVSA
VL: DIVMTQSQKFMSTSVGDRVSVTCKASQNVGANVAWYQQKPGQSPKTLIYSASYRYGGVPDRFTGSGSGTDFTFTITNVQSEDLAEYFCQQYNNYPLTFGAGTKLDLK
notes: as for B1
Consider B3, for which, in experiment [1], the Kd was 2.9 nM, the koff was 0.00037 s⁻¹ and the kon was 130000 M⁻¹ s⁻¹. Moreover, in experiment [2], the Kd was found to be 2.9 nM, the koff came to 0.00036 s⁻¹ and the kon worked out at 130000 M⁻¹ s⁻¹.

B4: GPN18-1 (antibody, V domains shown)
VH: QVTLKESGPGILQPSQTLSLTCSFSGFSLSTSVMGVGWIRQPSGKGLEWLADIWWDDDKDYNPSLKSRLTISKDTSKNQVFLKIASVDTADTATYYCARAYYSNYEYYGMDYWGQGTSVTVSS
VL: DVLMTQTPLSLPVSLGDQASISCRSSQSIVHSNGNTYLEWYLQKPGQSPKLLIYKVSNRFSGVPDRFSGSGSGTDFTLKISRVEAEDLGVYYCFQGSHVPFTFGSGTKLEIK
notes: as for B1
Consider B4, for which, in experiment [1], the Kd was 14 nM, the koff is 0.00054 s⁻¹ and the kon worked out at 38000 M⁻¹ s⁻¹. Further, in experiment [2], the Kd is 24 nM, the koff turned out to be 0.00091 s⁻¹ and the kon stood at 38000 M⁻¹ s⁻¹.

B5: GPN18-2 (antibody, V domains shown)
VH: QVTLKESGPGILQPSQTLSLTCSFSGFSLSTSVMGVGWIRQPSGKGLEWLADIWWDDDKDYNPSLKSRLTISKDTSKNQVFLKIASVDTADTATYYCARTYYSNYEYYGMDYWGQGTSVTVSS
VL: DVLMTQTPLSLPVSLGDQASISCRSSQTIILSNGNTYLEWYLQKPGQSPKLLIYKVSNRFSGVPDRFSGSGSGTDFTLKISRVEAEDLGVYYCFQGSHVPFTFGSGTKLEIK
notes: as for B1
As to B5, in experiment [1], the Kd turned out to be 2.2 nM, the koff was 6.8e-05 s⁻¹ and the kon was 31000 M⁻¹ s⁻¹. Moreover, in experiment [2], the Kd was 3.3 nM, the koff came out at 7.9e-05 s⁻¹ and the kon is 24000 M⁻¹ s⁻¹.

B6: GPN18-7 (antibody, V domains shown)
VH: QVTLKESGPGILQPSQTLSLTCSFSGFSLSTSVMGVGWIRQPSGKGLEWLADIWWDDDKDYNPSLKSRLTISKDTSKNQVFLKIASVDTADTATYYCARAYYSNFEYYGMDYWGQGTSVTVSS
VL: DVLMTQIPLSLPVSLGDQASISCRSSQTIVHSNGNTYLEWYLQKPGQSPKLLIYKVSNRFSGVPDRFSGSGSGTDFTLKISRVEAEDLGVYYCFQGSHVPFTFGSGTKLEIK
notes: as for B1
Consider B6, for which, in experiment [1], the Kd came out at 23 nM, the koff is 0.00059 s⁻¹ and the kon was 26000 M⁻¹ s⁻¹. In experiment [2], the Kd is 49 nM, the koff came out at 0.00099 s⁻¹ and the kon amounted to 20000 M⁻¹ s⁻¹.

B7: GPN11-10 (antibody, V domains shown)
VH: QVNLLQSGAALVKPGASVRLSCKTSGYTFTDCYIHWVRQSHGKSLEWIGFINPNSGYTFYNEKFKSKATLTVAKSTNTAYMELSRLTSEDSATYFCTRGDYYTSNLYDWFAYWGQGTLVTVSS
VL: DTVMTQSPASMSTSVGERVTVNCKASQTVGTVVAWFQQKPGQSPKRLIYWATNRHTGVPDRFTGSGFGRDFSLTISNVEAEDLAVYYCLQYGSVPPTFGGGTKLELK
notes: as for B1
With B7, in experiment [1], the Kd came to 13 nM, the koff was determined as 0.001 s⁻¹ and the kon came to 81000 M⁻¹ s⁻¹. For the same molecule, in experiment [2], the Kd came out at 4.9 nM, the koff is 0.00037 s⁻¹ and the kon is 75000 M⁻¹ s⁻¹.

B8: GPN09-1 (antibody, V domains shown)
VH: QVQLKASGPGLVQPSQTLSLTCTVSGLSLTSININWIRQPPGKGLEWMGVIWSDGDTDFNSAVKSRLSISRDTSKSQVFLNMNSLQTEDTAMYFCARGIRDWGQGVMVTVSS
VL: DIVMTQTPLSLSVAIGQSASISCKSSQSLKYSDGKTYLNWVFQSPGQSPKRLIYQVSKLDSGVPDRFSGTGSETDFTLKISRVEAEDLGVYYCCQGSYSPHTFGSGTKLEIK
notes: as for B1
For the molecule B8, in experiment [2], the Kd stood at 2.6 nM, the koff amounted to 0.00042 s⁻¹ and the kon turned out to be 160000 M⁻¹ s⁻¹.

B9: GPN18-5 (antibody, V domains shown)
VH: QVQLQQSGAELAKPGTSVKMSCKASGYTFTTYWMNWVKQRPGQDLEWIGAINPSNDYTEYNQKFKDKAILTADKSSNTAYMQLSSLTSEDSAVYYCGRSYSPDYWGQGTTLTVSS
VL: DIVMTQSQKFMSTSVGDRVSVTCKASQNVDNHVAWHQQKPGQSPKALIYSASYRYSGVPDRFTGSGSGTDFTLTIRDVQSEDLADYFCQQYKSYPFTFGSGTELEIK
notes: as for B1
For the molecule B9, in experiment [1], the Kd was determined as 2 nM, the koff came out at 0.0003 s⁻¹ and the kon stood at 150000 M⁻¹ s⁻¹. Besides, in experiment [2], the Kd is 7.7 nM, the koff stood at 0.0007 s⁻¹ and the kon was found to be 91000 M⁻¹ s⁻¹.

B10: GPN18-6 (antibody, V domains shown)
VH: EVQLQQSGPELVMPGSSVKISCKASGYTFTDYYMNWVRQSHGKSLEWIGDINPINGDITYNQKFKGKATLTVDKSSSTDYMELRGLTSEDSAVYYCAREAFFGYKGNYFDYWGQGTTLTVSS
VL: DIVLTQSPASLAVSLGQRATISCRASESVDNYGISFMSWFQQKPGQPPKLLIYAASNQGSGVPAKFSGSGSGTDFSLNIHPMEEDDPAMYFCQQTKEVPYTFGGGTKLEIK
notes: as for B1
Consider B10, for which, in experiment [1], the Kd is 24 nM, the koff was found to be 0.00065 s⁻¹ and the kon amounted to 27000 M⁻¹ s⁻¹. In experiment [2], the Kd came to 31 nM, the koff stood at 0.00098 s⁻¹ and the kon came out at 32000 M⁻¹ s⁻¹.

B11: GPN18-4 (antibody, V domains shown)
VH: QVQLQQSGAELTKPGTSVKMSCKASGYTLSSYWMNWIKQRPGQGLEWIGTINPSNNYTAYNLKFKDKAMLTADKSSSTAYMQLSSLTSEDSAVYYCATWGYWGQGTTLTVSS
VL: DIVMTQSHKFMSTSVGDRVSITCKASQDVSTAVAWHQQKPGQPPKLLIYSASYRYTGVPDRFTGSGSGTDFTFTISSVQTEDLAIYYCQHHYTTTWTFGGGTKLEIR
notes: as for B1
For the molecule B11, in experiment [1], the dissociation constant Kd was 0.32 nM, the koff was 1.5e-05 s⁻¹ and the kon stood at 47000 M⁻¹ s⁻¹. Further, in experiment [2], the Kd is 3.8 nM, the koff amounted to 0.00012 s⁻¹ and the kon was determined as 30000 M⁻¹ s⁻¹.

B12: GPN15-2 (antibody, V domains shown)
VH: QVQLQQPGAELVKPGASVKMSCKASGYTFTNHNMHWVKQTPGQGLEWIGAFYTGNGDTSYNQKFKGKATLTADKSSSTAYIQLSSLTSEDSAVYYCARERYDGYYIAMDYWGQGTSVTVSS
VL: QIVLTQSPAFMSVSPGEKVTMTCSASSSVYYMFWYQQKPRSSPKPWIYLTSKLASGVPARFSGSGSGTSYSVTISSMEAEDAATYYCQQWSSNPQWTFGGGTKLEIK
notes: as for B1
Take B12: in experiment [1], the Kd came to 0.0035 nM, the koff came out at 6e-07 s⁻¹ and the on-rate constant (kon) turned out to be 170000 M⁻¹ s⁻¹. Besides, in experiment [2], the Kd was 2 nM, the koff was determined as 0.00028 s⁻¹ and the kon is 140000 M⁻¹ s⁻¹.

B13: 1-5E (antibody, V domains shown)
VH: EVQLQQSGAELVRSGASVKLSCTASGFNIKDYYMHWVKQRPDQGLEWIGWIDPENGDTEYAPKFQGKATMTADTSPNTAYLQLSSLTSEDTAVYYCNGVYYGSRGFFDYWGQGTTLTVSS
VL: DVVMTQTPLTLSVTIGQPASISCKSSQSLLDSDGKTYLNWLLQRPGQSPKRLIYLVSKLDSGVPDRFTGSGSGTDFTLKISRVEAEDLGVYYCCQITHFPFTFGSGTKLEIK
notes: obtained by immunization with a vaccine peptide of a previous report; also called vaccine peptide antibody
As for B13, in experiment [2], the Kd stood at 9.1 nM, the koff worked out at 0.0061 s⁻¹ and the kon amounted to 670000 M⁻¹ s⁻¹.
